In patent US20090053196:

System: FLAG-tagged UNC-45 (UNC-45^FLAG)

Substance: ^mycCHN-1^ΔU-box
- in vitro ubiquitylation of UNC-45, Western blot: a CHN-1 version lacking the U-box, CHN-1^ΔU-box, was not able to ubiquitylate UNC-45
